Reference: US20250195607A1 (BIOLINERX, published 2025)
Bridges are numbered along the chain shown (N, C = ends). [ ]: non-standard residue; d: D form. The star is where a group is joined. 2Nal = N[C@@H](Cc1ccc2ccccc2c1)C(=O)O; Benzoyl(4-F) = O=C(c1ccc(F)cc1)*; Cit = NC(=O)NCCC[C@H](N)C(=O)O

Biological target: CXCR4 chemokine receptor (mouse, UniProt P70658 1-359)
Assay: cell-based or functional assay

Sequence of CXCR4 chemokine receptor (P70658 whole entry): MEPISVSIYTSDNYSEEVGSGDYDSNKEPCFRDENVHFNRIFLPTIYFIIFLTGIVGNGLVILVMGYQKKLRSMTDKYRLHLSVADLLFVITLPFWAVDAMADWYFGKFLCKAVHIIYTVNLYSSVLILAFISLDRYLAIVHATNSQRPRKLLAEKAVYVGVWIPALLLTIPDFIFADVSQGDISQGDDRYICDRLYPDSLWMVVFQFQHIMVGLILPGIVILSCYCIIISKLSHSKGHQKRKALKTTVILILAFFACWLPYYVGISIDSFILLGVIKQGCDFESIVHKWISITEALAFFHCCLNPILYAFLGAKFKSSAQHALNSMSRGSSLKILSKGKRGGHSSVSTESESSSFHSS

Fold increase in neutrophil number in peripheral blood (mice, 5 mg/kg s.c., 2 hours after injection, flow cytometry); BL-8040 composition of Example 1: 9.9 fold | Fold increase in neutrophil number in peripheral blood (mice, 5 mg/kg s.c., 2 hours after injection, flow cytometry); BL-8040 composition of Reference Example 1: 5.6 fold
Binder: {Benzoyl(4-F)}-RR[2Nal]CY[Cit]K[dK]PYR[Cit]CR-NH2 (disulfide 4-13 (inferred))
